Experimental data: IntAct's records for PubMed 36931259

B1: Kinesin-like protein KIF1C (Homo sapiens), O43896 (parent)
chain: MAGASVKVAVRVRPFNARETSQDAKCVVSMQGNTTSIINPKQSKDAPKSFTFDYSYWSHTSTEDPQFASQQQVYRDIGEEMLLHAFEGYNVCIFAYGQTGAGKSYTMMGRQEPGQQGIVPQLCEDLFSRVSENQSAQLSYSVEVSYMEIYCERVRDLLNPKSRGSLRVREHPILGPYVQDLSKLAVTSYADIADLMDCGNKARTVAATNMNETSSRSHAVFTIVFTQRCHDQLTGLDSEKVSKISLVDLAGSERADSSGARGMRLKEGANINKSLTTLGKVISALADMQSKKRKSDFIPYRDSVLTWLLKENLGGNSRTAMIAALSPADINYEETLSTLRYADRTKQIRCNAIINEDPNARLIRELQEEVARLRELLMAQGLSASALEGLKTEEGSVRGALPAVSSPPAPVSPSSPTTHNGELEPSFSPNTESQIGPEEAMERLQETEKIIAELNETWEEKLRKTEALRMEREALLAEMGVAVREDGGTVGVFSPKKTPHLVNLNEDPLMSECLLYHIKDGVTRVGQVDMDIKLTGQFIREQHCLFRSIPQPDGEVVVTLEPCEGAETYVNGKLVTEPLVLKSGNRIVMGKNHVFRFNHPEQARLERERGVPPPPGPPSEPVDWNFAQKELLEQQGIDIKLEMEKRLQDLENQYRKEKEEADLLLEQQRLYADSDSGDDSDKRSCEESWRLISSLREQLPPTTVQTIVKRCGLPSSGKRRAPRRVYQIPQRRRLQGKDPRWATMADLKMQAVKEICYEVALADFRHGRAEIEALAALKMRELCRTYGKPDGPGDAWRAVARDVWDTVGEEEGGGAGSGGGSEEGARGAEVEDLRAHIDKLTGILQEVKLQNSSKDRELQALRDRMLRMERVIPLAQDHEDENEEGGEVPWAPPEGSEAAEEAAPSDRMPSARPPSPPLSSWERVSRLMEEDPAFRRGRLRWLKQEQLRLQGLQGSGGRGGGLRRPPARFVPPHDCKLRFPFKSNPQHRESWPGMGSGEAPTPLQPPEEVTPHPATPARRPPSPRRSHHPRRNSLDGGGRSRGAGSAQPEPQHFQPKKHNSYPQPPQPYPAQRPPGPRYPPYTTPPRMRRQRSAPDLKESGAAV
partner: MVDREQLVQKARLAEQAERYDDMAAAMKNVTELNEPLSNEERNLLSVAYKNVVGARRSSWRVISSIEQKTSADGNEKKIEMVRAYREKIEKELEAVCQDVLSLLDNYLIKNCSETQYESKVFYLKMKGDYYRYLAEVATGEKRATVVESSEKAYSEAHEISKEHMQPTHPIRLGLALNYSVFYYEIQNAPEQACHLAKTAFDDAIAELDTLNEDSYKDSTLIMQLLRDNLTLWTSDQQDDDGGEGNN
B2: 14-3-3 protein sigma (Homo sapiens), P31947 (parent)
chain: MERASLIQKAKLAEQAERYEDMAAFMKGAVEKGEELSCEERNLLSVAYKNVVGGQRAAWRVLSSIEQKSNEEGSEEKGPEVREYREKVETELQGVCDTVLGLLDSHLIKEAGDAESRVFYLKMKGDYYRYLAEVATGDDKKRIIDSARSAYQEAMDISKKEMPPTNPIRLGLALNFSVFHYEIANSPEEAISLAKTTFDEAMADLHTLSEDSYKDSTLIMQLLRDNLTLWTADNAGEEGGEAPQEPQS
partner: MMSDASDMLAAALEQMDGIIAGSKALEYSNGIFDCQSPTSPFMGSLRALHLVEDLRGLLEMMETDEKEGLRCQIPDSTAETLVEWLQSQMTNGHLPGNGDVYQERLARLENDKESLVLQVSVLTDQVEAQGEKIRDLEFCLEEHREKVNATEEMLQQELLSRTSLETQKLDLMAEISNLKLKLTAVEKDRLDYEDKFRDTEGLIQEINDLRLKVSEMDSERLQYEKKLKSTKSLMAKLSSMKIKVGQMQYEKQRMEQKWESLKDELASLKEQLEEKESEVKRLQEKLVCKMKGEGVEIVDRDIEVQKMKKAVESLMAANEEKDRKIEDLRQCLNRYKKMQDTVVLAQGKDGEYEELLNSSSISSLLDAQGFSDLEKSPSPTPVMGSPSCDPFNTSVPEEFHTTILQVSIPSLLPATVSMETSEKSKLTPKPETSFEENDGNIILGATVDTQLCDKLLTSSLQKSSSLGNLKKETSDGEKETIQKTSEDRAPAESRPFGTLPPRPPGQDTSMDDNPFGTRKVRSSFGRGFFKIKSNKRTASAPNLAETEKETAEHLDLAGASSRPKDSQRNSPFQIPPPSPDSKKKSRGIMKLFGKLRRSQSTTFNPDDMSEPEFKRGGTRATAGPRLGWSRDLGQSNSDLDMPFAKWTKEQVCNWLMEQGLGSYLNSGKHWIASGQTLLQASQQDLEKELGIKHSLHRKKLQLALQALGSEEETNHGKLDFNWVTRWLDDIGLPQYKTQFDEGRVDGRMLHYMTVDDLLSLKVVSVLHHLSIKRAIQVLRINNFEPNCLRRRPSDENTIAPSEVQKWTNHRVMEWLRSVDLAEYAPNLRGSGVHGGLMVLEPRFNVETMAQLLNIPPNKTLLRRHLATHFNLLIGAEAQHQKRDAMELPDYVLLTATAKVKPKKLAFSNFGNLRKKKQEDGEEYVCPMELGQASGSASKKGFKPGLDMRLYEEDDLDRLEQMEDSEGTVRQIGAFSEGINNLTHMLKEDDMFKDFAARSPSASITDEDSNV
B3: 14-3-3 protein sigma (Homo sapiens), P31947 (parent)
chain: B2 chain
partner: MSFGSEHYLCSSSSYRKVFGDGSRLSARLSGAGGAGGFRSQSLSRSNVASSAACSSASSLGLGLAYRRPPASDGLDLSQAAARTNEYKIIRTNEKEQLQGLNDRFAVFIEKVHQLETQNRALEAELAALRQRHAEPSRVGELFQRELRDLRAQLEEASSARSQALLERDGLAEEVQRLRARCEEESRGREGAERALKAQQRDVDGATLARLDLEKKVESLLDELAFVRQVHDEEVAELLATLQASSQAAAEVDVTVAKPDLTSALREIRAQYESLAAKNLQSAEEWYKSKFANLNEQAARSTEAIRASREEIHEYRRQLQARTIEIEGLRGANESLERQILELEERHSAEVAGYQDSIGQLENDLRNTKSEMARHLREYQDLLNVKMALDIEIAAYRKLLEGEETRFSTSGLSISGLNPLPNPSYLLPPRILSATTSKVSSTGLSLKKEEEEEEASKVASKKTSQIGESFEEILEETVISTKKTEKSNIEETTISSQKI
B4: 14-3-3 protein sigma (Homo sapiens), P31947 (parent)
chain: B2 chain
partner: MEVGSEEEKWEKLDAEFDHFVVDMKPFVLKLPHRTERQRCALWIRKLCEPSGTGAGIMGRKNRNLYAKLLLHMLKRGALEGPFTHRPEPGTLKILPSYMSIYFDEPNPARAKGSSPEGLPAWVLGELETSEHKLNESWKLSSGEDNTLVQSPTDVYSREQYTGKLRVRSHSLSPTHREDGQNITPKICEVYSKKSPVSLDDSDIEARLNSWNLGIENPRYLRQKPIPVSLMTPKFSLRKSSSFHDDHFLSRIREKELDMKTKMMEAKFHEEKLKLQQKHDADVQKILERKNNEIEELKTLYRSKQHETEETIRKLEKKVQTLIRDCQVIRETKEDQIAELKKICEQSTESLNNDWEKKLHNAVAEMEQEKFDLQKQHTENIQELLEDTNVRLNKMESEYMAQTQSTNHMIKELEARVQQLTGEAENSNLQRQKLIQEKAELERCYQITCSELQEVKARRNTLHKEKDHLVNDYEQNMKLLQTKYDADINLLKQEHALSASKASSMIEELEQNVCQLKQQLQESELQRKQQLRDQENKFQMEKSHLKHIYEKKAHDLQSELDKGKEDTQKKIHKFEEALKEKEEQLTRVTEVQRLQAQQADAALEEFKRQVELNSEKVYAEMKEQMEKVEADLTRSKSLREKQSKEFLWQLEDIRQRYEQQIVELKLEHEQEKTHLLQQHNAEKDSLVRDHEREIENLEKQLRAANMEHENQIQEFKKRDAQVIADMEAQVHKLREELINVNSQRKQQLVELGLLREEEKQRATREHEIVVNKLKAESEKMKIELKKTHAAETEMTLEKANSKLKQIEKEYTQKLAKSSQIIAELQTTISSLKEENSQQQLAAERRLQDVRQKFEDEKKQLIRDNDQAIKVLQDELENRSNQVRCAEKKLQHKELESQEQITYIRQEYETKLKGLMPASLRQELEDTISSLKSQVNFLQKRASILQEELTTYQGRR
B5: 14-3-3 protein sigma (Homo sapiens), P31947 (parent)
chain: B2 chain
partner: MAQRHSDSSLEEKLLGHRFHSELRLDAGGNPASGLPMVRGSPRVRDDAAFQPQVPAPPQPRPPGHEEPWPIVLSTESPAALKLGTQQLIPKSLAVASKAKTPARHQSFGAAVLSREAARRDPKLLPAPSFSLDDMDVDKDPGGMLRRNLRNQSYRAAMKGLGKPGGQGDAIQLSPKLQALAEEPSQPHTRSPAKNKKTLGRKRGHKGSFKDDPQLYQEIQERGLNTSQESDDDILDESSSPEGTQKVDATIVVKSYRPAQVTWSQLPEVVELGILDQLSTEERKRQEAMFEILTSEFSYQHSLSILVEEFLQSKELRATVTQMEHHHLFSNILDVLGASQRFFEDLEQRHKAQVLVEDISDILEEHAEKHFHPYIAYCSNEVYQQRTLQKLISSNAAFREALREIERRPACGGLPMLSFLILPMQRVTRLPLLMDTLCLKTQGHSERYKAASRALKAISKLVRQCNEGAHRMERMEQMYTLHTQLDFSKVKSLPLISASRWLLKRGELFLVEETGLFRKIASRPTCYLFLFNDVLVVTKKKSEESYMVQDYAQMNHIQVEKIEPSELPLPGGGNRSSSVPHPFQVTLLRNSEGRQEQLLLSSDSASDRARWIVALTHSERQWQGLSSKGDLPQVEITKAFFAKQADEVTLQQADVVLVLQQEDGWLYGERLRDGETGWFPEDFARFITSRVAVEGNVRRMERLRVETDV

Variants of: B1
Details: with 1433g_human YWHAG

| Variant | effect of a mutation on the interaction |
| --- | --- |
| S915A;S1033A;S1092A | disrupting interaction strength |

Variants of: B2
Details: with lipb1_human PPFIBP1, Q86W92

| Variant | effect of a mutation on the interaction |
| --- | --- |
| MERASLIQKAKLAEQAERYEDMAAFMKGAVEKGEELSCEERNLLSVAYENVVGGQEAAWRVLSSIEQKSNEEGSEEKGPEVREYREKVETELQGVCDTVLGLLDSHLIKEAGDAESRVFYLKMKGDYYRYLAEVATGDDKKRIIDSARSAYQEAMDISKKEMPPTNPIRLGLALNFSDFHYEIANSPEEAISLAKTTFDEAMADLHTLSEDSYKDSTLIMQLLRDNLTLWTADNAGEEGGEAPQEPQS [K49E;R56E;V178D] | decreasing interaction strength |

Variants of: B3
Details: with ainx_human INA

| Variant | effect of a mutation on the interaction |
| --- | --- |
| MERASLIQKAKLAEQAERYEDMAAFMKGAVEKGEELSCEERNLLSVAYENVVGGQEAAWRVLSSIEQKSNEEGSEEKGPEVREYREKVETELQGVCDTVLGLLDSHLIKEAGDAESRVFYLKMKGDYYRYLAEVATGDDKKRIIDSARSAYQEAMDISKKEMPPTNPIRLGLALNFSDFHYEIANSPEEAISLAKTTFDEAMADLHTLSEDSYKDSTLIMQLLRDNLTLWTADNAGEEGGEAPQEPQS [K49E;R56E;V178D] | decreasing interaction strength |

Variants of: B4
Details: with ce112_human CEP112, Q8N8E3

| Variant | effect of a mutation on the interaction |
| --- | --- |
| MERASLIQKAKLAEQAERYEDMAAFMKGAVEKGEELSCEERNLLSVAYENVVGGQEAAWRVLSSIEQKSNEEGSEEKGPEVREYREKVETELQGVCDTVLGLLDSHLIKEAGDAESRVFYLKMKGDYYRYLAEVATGDDKKRIIDSARSAYQEAMDISKKEMPPTNPIRLGLALNFSDFHYEIANSPEEAISLAKTTFDEAMADLHTLSEDSYKDSTLIMQLLRDNLTLWTADNAGEEGGEAPQEPQS [K49E;R56E;V178D] | decreasing interaction strength |

Variants of: B5
Details: with arhgg_human ARHGEF16, Q5VV41

| Variant | effect of a mutation on the interaction |
| --- | --- |
| MERASLIQKAKLAEQAERYEDMAAFMKGAVEKGEELSCEERNLLSVAYENVVGGQEAAWRVLSSIEQKSNEEGSEEKGPEVREYREKVETELQGVCDTVLGLLDSHLIKEAGDAESRVFYLKMKGDYYRYLAEVATGDDKKRIIDSARSAYQEAMDISKKEMPPTNPIRLGLALNFSDFHYEIANSPEEAISLAKTTFDEAMADLHTLSEDSYKDSTLIMQLLRDNLTLWTADNAGEEGGEAPQEPQS [K49E;R56E;V178D] | decreasing interaction strength |
